Test results reported in patent US20250154231A1.
Where two headings read alike, the source gives them in different places.

Assays:
Assay in all cases: cell-based or functional assay
[1] = biological target: SARS-CoV-2 Omicron BA.2 spike (S) protein, pseudovirus construct (SARS-CoV-2) (UniProt P0DTC2)
[2] = biological target: SARS-CoV-2 Omicron BA.1 spike (S) protein, pseudovirus construct (SARS-CoV-2) (UniProt P0DTC2)
[3] = biological target: SARS-CoV-2 Omicron BA.3 spike (S) protein, pseudovirus construct (SARS-CoV-2) (UniProt P0DTC2)
[4] = biological target: SARS-CoV-2 Omicron BA.1.1 spike (S) protein, pseudovirus construct (SARS-CoV-2) (UniProt P0DTC2)
[5] = biological target: SARS-CoV-2 Victoria spike (S) protein (SARS-CoV-2) (UniProt P0DTC2)
[6] = biological target: SARS-CoV-2 spike (S) protein, Omicron BA.4.6 (SARS-CoV-2) (UniProt P0DTC2)
[7] = biological target: SARS-CoV-2 spike (S) protein, Victoria strain (SARS-CoV-2) (UniProt P0DTC2)
[8] = biological target: SARS-CoV-2 spike (S) protein, Omicron BA.2.75.2 (SARS-CoV-2) (UniProt P0DTC2)
[9] = biological target: SARS-CoV-2 spike (S) protein, Omicron BA.2 (SARS-CoV-2) (UniProt P0DTC2)
[10] = biological target: SARS-CoV-2 spike (S) protein, Omicron BA.4/5 (SARS-CoV-2) (UniProt P0DTC2)
[11] = biological target: SARS-CoV-2 spike (S) protein, Omicron BA.2.75 (SARS-CoV-2) (UniProt P0DTC2)
[12] = biological target: SARS-CoV-2 spike (S) protein, Omicron BA.2.3.20 (SARS-CoV-2) (UniProt P0DTC2)
[13] = biological target: SARS-CoV-2 spike (S) protein, Omicron BJ.1 (SARS-CoV-2) (UniProt P0DTC2)
[14] = biological target: SARS-CoV-2 spike (S) protein, Omicron BA.4.6 (SARS-CoV-2) (UniProt P0DTC2); remark: listed apart in the source
[15] = biological target: SARS-CoV-2 spike (S) protein, Omicron BA.3 (SARS-CoV-2) (UniProt P0DTC2)
[16] = biological target: SARS-CoV-2 Omicron BA.1.1 spike (S) protein (SARS-CoV-2) (UniProt P0DTC2)
[17] = biological target: SARS-CoV-2 spike (S) protein, Victoria strain (SARS-CoV-2) (UniProt P0DTC2); remark: listed apart in the source
[18] = biological target: SARS-CoV-2 spike (S) protein, Omicron BA.2 (SARS-CoV-2) (UniProt P0DTC2); remark: listed apart in the source
[19] = biological target: SARS-CoV-2 Alpha spike (S) protein (SARS-CoV-2) (UniProt P0DTC2)
[20] = biological target: SARS-CoV-2 Beta spike (S) protein (SARS-CoV-2) (UniProt P0DTC2)
[21] = biological target: SARS-CoV-2 spike (S) protein, Omicron BA.1.1 (SARS-CoV-2) (UniProt P0DTC2)
[22] = biological target: SARS-CoV-2 Omicron BA.1 spike (S) protein of the live isolate (SARS-CoV-2) (UniProt P0DTC2)
[23] = biological target: SARS-CoV-2 spike (S) protein, Omicron BA.4/5 (SARS-CoV-2) (UniProt P0DTC2); remark: listed apart in the source
[24] = biological target: SARS-CoV-2 Omicron BA.2 spike (S) protein (SARS-CoV-2) (UniProt P0DTC2)
[25] = biological target: SARS-CoV-2 spike (S) protein, Omicron BA.1 (SARS-CoV-2) (UniProt P0DTC2)
[26] = biological target: SARS-CoV-2 Delta spike (S) protein (SARS-CoV-2) (UniProt P0DTC2)
[27] = biological target: SARS-CoV-2 Gamma spike (S) protein (SARS-CoV-2) (UniProt P0DTC2)
[28] = biological target: SARS-CoV-2 spike (S) protein, Omicron BA.2.75 (SARS-CoV-2) (UniProt P0DTC2); remark: listed apart in the source

**Q.** Which IC50 (ug/ml), pseudovirus [1] does the source give for Known Antibody F (ADG10) here?
**A.** > 10 µg/mL

**Q.** What about the IC50 (ug/ml), pseudovirus [2] of the same substance?
**A.** > 10 µg/mL

**Q.** And the IC50 (ug/ml), pseudovirus [3]?
**A.** > 10 µg/mL

**Q.** What about the IC50 (ug/ml), pseudovirus [4] of the same substance?
**A.** > 10 µg/mL

**Q.** And the IC50 (ug/ml), pseudovirus [5]?
**A.** 0.007 µg/mL

**Q.** Which IC50 (ug/ml), pseudovirus [1] does the source give for Known Antibody G (ADG20) here?
**A.** > 10 µg/mL

**Q.** And the IC50 (ug/ml), pseudovirus [2]?
**A.** 0.348 µg/mL

**Q.** And the IC50 (ug/ml), pseudovirus [3]?
**A.** > 10 µg/mL

**Q.** And the IC50 (ug/ml), pseudovirus [4]?
**A.** 0.253 µg/mL

**Q.** And the IC50 (ug/ml), pseudovirus [5]?
**A.** 0.003 µg/mL

**Q.** How did the IC50 (ug/ml), pseudovirus [1] turn out when Known Antibody H (ADG30) was run?
**A.** > 10 µg/mL

**Q.** And the IC50 (ug/ml), pseudovirus [2]?
**A.** > 10 µg/mL

**Q.** What about the IC50 (ug/ml), pseudovirus [3] of the same substance?
**A.** > 10 µg/mL

**Q.** What about the IC50 (ug/ml), pseudovirus [4] of the same substance?
**A.** > 10 µg/mL

**Q.** What about the IC50 (ug/ml), pseudovirus [5] of the same substance?
**A.** 0.014 µg/mL

**Q.** For Known Antibody I (Ly-CoV-555), which IC50 (ug/ml), pseudovirus [1] is on record?
**A.** > 10 µg/mL

**Q.** What about the IC50 (ug/ml), pseudovirus [2] of the same substance?
**A.** > 10 µg/mL

**Q.** And the IC50 (ug/ml), pseudovirus [3]?
**A.** > 10 µg/mL

**Q.** And the IC50 (ug/ml), pseudovirus [4]?
**A.** > 10 µg/mL

**Q.** And the IC50 (ug/ml), pseudovirus [5]?
**A.** 0.002 µg/mL

**Q.** Which results are given for Known Antibody J (Ly-CoV16)?
**A.** IC50 (ug/ml), pseudovirus [1]: > 10 µg/mL; IC50 (ug/ml), pseudovirus [2]: > 10 µg/mL; IC50 (ug/ml), pseudovirus [3]: > 10 µg/mL; IC50 (ug/ml), pseudovirus [4]: > 10 µg/mL; IC50 (ug/ml), pseudovirus [5]: 0.014 µg/mL

**Q.** Known Antibody K (S309) was tested. Which IC50 (ug/ml), pseudovirus [1] did it give?
**A.** 0.638 µg/mL

**Q.** What about the IC50 (ug/ml), pseudovirus [2] of the same substance?
**A.** 0.094 µg/mL

**Q.** What about the IC50 (ug/ml), pseudovirus [3] of the same substance?
**A.** 0.228 µg/mL

**Q.** And the IC50 (ug/ml), pseudovirus [4]?
**A.** 0.138 µg/mL

**Q.** And the IC50 (ug/ml), pseudovirus [5]?
**A.** 0.587 µg/mL

**Q.** LY-CoV1404 (bebtelovimab) (antibody) was tested. Which IC50, pseudoviral neutralization [6] did it give?
**A.** 0.001 µg/mL

**Q.** What about the IC50, pseudoviral neutralization [7] of the same substance?
**A.** 0.001 µg/mL

**Q.** And the IC50, pseudoviral neutralization [8]?
**A.** 0.002 µg/mL

**Q.** And the IC50, pseudoviral neutralization [9]?
**A.** 0.001 µg/mL

**Q.** What about the IC50, pseudoviral neutralization [10] of the same substance?
**A.** 0.002 µg/mL

**Q.** And the IC50, pseudoviral neutralization [11]?
**A.** 0.002 µg/mL

**Q.** And the IC50, pseudoviral neutralization [12]?
**A.** 0.018 µg/mL

**Q.** And the IC50, pseudoviral neutralization [13]?
**A.** > 10 µg/mL

**Q.** For Ly-CoV16 (antibody), which IC50, pseudoviral neutralization [14] is on record?
**A.** > 10 µg/mL

**Q.** And the IC50, pseudoviral neutralization [15]?
**A.** > 10 µg/mL

**Q.** And the pseudovirus neutralisation IC50 [15]?
**A.** > 10 µg/mL

**Q.** And the IC50, authentic virus neutralization [16]?
**A.** > 10 µg/mL

**Q.** And the IC50, pseudoviral neutralization [17]?
**A.** 0.014 µg/mL

**Q.** What about the pseudovirus neutralisation IC50 [17] of the same substance?
**A.** 0.014 µg/mL

**Q.** And the IC50, pseudoviral neutralization [18]?
**A.** > 10 µg/mL

**Q.** And the pseudovirus neutralisation IC50 [18]?
**A.** > 10 µg/mL

**Q.** What about the IC50, authentic virus neutralization [19] of the same substance?
**A.** 3.23 µg/mL

**Q.** And the IC50, authentic virus neutralization [20]?
**A.** > 10 µg/mL

**Q.** And the IC50, pseudoviral neutralization [21]?
**A.** > 10 µg/mL

**Q.** And the pseudovirus neutralisation IC50 [21]?
**A.** > 10 µg/mL

**Q.** What about the IC50, authentic virus neutralization [22] of the same substance?
**A.** > 10 µg/mL

**Q.** And the IC50, pseudoviral neutralization [23]?
**A.** > 10 µg/mL

**Q.** What about the pseudovirus neutralisation IC50 [23] of the same substance?
**A.** > 10 µg/mL

**Q.** What about the IC50, authentic virus neutralization [5] of the same substance?
**A.** 0.034 µg/mL

**Q.** What about the IC50, authentic virus neutralization [24] of the same substance?
**A.** > 10 µg/mL

**Q.** And the IC50, pseudoviral neutralization [25]?
**A.** > 10 µg/mL

**Q.** And the pseudovirus neutralisation IC50 [25]?
**A.** > 10 µg/mL

**Q.** What about the IC50, authentic virus neutralization [26] of the same substance?
**A.** 0.012 µg/mL

**Q.** And the IC50, authentic virus neutralization [27]?
**A.** > 10 µg/mL

**Q.** What about the pseudovirus neutralisation IC50 [28] of the same substance?
**A.** > 10 µg/mL

**Q.** What about the IC50, pseudoviral neutralization [6] of the same substance?
**A.** > 10 µg/mL

**Q.** And the IC50, pseudoviral neutralization [7]?
**A.** 0.014 µg/mL

**Q.** And the IC50, pseudoviral neutralization [8]?
**A.** > 10 µg/mL

**Q.** What about the IC50, pseudoviral neutralization [10] of the same substance?
**A.** > 10 µg/mL

**Q.** And the IC50, pseudoviral neutralization [11]?
**A.** > 10 µg/mL

**Q.** What about the IC50, pseudoviral neutralization [12] of the same substance?
**A.** > 10 µg/mL

**Q.** What about the IC50, pseudoviral neutralization [13] of the same substance?
**A.** > 10 µg/mL

**Q.** Which results are given for Ly-CoV-555 (antibody)?
**A.** IC50, authentic virus neutralization [16]: > 10 µg/mL; IC50, authentic virus neutralization [19]: 0.009 µg/mL; IC50, authentic virus neutralization [20]: > 10 µg/mL; IC50, authentic virus neutralization [22]: > 10 µg/mL; IC50, authentic virus neutralization [5]: 0.006 µg/mL; IC50, authentic virus neutralization [24]: > 10 µg/mL; IC50, authentic virus neutralization [26]: 8.31 µg/mL; IC50, authentic virus neutralization [27]: > 10 µg/mL
